Experimental data from PMC2916881.

Legend:
human fibrinogen (human) = human fibrinogen (human) (UniProt P02671); assay: SPR; BIAcore 3000, CM5 chip; human prothrombin and human fibrinogen amine-linked, Coa or vWbp injected in HBS-P (20 mM HEPES pH 7.4, 150 mM NaCl, 0.005% P20), flow 2 uL/min; 1:1 binding model with drifting baseline and local Rmax (the legend of Figure S5 tells the opposite orientation)
[1] = molecular target: human prothrombin (human); assay: as above

Chain of UniProt P02671 (P02671 36-866, chain 1 of 3): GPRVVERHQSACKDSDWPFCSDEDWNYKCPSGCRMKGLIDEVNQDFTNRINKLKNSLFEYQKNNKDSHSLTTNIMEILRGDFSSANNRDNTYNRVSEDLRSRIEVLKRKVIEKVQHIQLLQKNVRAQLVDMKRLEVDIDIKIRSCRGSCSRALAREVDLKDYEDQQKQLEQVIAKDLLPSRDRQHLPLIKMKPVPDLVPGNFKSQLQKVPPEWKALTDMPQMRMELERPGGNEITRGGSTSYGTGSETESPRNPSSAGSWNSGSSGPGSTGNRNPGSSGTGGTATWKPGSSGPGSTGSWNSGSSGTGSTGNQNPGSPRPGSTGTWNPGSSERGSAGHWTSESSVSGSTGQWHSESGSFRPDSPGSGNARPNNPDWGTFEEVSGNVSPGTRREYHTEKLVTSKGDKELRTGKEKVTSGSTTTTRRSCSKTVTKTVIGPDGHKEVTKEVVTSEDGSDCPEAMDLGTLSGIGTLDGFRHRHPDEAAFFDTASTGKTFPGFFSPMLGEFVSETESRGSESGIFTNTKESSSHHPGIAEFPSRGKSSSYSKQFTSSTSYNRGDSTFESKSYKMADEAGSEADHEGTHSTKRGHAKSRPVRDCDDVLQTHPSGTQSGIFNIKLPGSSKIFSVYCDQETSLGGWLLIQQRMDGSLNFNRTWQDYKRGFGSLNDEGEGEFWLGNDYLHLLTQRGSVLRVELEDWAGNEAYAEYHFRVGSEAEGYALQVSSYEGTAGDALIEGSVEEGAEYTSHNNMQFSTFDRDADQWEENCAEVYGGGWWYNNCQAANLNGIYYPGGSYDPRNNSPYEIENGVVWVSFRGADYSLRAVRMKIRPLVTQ
Chain of UniProt P02671 (P02675 45-491, chain 2 of 3, further chain): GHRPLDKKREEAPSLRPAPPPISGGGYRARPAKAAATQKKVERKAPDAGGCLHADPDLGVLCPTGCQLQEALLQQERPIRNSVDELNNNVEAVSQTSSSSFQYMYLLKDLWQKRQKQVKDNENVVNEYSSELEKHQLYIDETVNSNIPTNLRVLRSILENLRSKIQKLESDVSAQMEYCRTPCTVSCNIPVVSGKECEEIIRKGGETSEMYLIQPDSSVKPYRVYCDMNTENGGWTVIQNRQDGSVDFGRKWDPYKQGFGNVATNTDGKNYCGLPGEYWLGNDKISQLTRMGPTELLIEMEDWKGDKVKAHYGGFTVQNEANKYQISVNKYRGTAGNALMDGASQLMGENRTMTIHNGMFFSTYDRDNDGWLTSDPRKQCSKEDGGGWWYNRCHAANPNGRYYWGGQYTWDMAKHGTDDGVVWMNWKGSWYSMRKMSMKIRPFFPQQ
Chain of UniProt P02671 (P02679 27-453, chain 3 of 3, further chain): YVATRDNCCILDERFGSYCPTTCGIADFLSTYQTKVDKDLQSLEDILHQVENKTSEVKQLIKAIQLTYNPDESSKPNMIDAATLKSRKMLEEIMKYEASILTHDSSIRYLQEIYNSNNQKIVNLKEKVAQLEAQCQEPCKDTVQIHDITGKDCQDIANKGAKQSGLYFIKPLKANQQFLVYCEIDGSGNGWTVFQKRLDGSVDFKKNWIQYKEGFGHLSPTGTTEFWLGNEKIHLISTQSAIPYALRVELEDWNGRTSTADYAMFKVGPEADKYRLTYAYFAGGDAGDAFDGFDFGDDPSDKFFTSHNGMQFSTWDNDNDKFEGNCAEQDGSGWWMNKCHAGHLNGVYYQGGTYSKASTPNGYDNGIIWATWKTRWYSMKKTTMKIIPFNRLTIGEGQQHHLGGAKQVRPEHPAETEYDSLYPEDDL

## S. aureus Newman Coagulase (natural protein)
Human fibrinogen (human)
  Kd: 0.033 µM
[1]
  Kd: 0.005 µM

## S. aureus Newman von Willebrand factor binding protein (natural protein)
Human fibrinogen (human)
  Kd: 0.271 µM
[1]
  Kd: 0.098 µM
